Data taken from PMC11546298.

Molecular target: eYFP-MotD (P. aeruginosa)
Assay: FRET or BRET

eCFP-MotY (from UniProt A0A0H2ZD91 1-321) (natural protein)
FRET efficiency (E): 1.54%
